Reference: paper PMC13397619

B1: NLV3 TCR beta chain (CDR3β only) (parent)
chain: ASSPTGGSPSPLH

Variants of: B1
Assay: T-Switch: Jurkat TCRβ−/− cells expressing a CDR3 saturation-mutagenesis library, stained with two peptide-HLA-A*02:01 tetramers (original and novel peptide) plus anti-CD3, FACS-sorted into four gates, gDNA sequenced
Details: tetramers 1 µg/mL, 30 min on ice, SP, DP and SW gates expanded about 10 days between rounds ('two to three rounds of selection' in the Methods), unresolved parent, parent is a CDR3 fragment, scale: fold enrichment, numbering: sequential-on-construct, sequence starts at 1
[1] = with both tetramers (double-negative gate, binds neither): HLA-A*02:01 with … and with …, gate DN: OPPOSITE: higher = more of the variant in the gate that binds neither peptide = LESS binding (or no expression; inferred). Fold enrichment of the CDR3 variant in one FACS gate of a two-tetram
[2] = with both tetramers (double-positive gate): HLA-A*02:01 with … and with …, gate DP: higher = more of the variant in the gate that binds both peptides. Fold enrichment of the CDR3 variant in one FACS gate of a two-tetramer stain. SP/DP/SW gates were expanded and re-sorted bef

[…] (CDR3 as printed); P9H derived by comparing it with the table's wild-type CDR3 ASSPTGGSPSPLH
enrichment [1]: 0.681 | enrichment [2]: 0

[…] (CDR3 as printed); P9I derived by comparing it with the table's wild-type CDR3 ASSPTGGSPSPLH
enrichment [1]: 1.11 | enrichment [2]: 0

[…] (CDR3 as printed); P9K derived by comparing it with the table's wild-type CDR3 ASSPTGGSPSPLH
enrichment [1]: 0.805 | enrichment [2]: 0

[…] (CDR3 as printed); P9L derived by comparing it with the table's wild-type CDR3 ASSPTGGSPSPLH
enrichment [1]: 1.2 | enrichment [2]: 0

[…] (CDR3 as printed); P9M derived by comparing it with the table's wild-type CDR3 ASSPTGGSPSPLH
enrichment [1]: 1.18 | enrichment [2]: 0

[…] (CDR3 as printed); P9N derived by comparing it with the table's wild-type CDR3 ASSPTGGSPSPLH
enrichment [1]: 1.65 | enrichment [2]: 0

[…] (CDR3 as printed); P9Q derived by comparing it with the table's wild-type CDR3 ASSPTGGSPSPLH
enrichment [1]: 0.777 | enrichment [2]: 0

[…] (CDR3 as printed); P9R derived by comparing it with the table's wild-type CDR3 ASSPTGGSPSPLH
enrichment [1]: 1.13 | enrichment [2]: 0

[…] (CDR3 as printed); P9S derived by comparing it with the table's wild-type CDR3 ASSPTGGSPSPLH
enrichment [1]: 0.771 | enrichment [2]: 0

[…] (CDR3 as printed); P9T derived by comparing it with the table's wild-type CDR3 ASSPTGGSPSPLH
enrichment [1]: 1.11 | enrichment [2]: 0

[…] (CDR3 as printed); P9V derived by comparing it with the table's wild-type CDR3 ASSPTGGSPSPLH
enrichment [1]: 0.664 | enrichment [2]: 0

[…] (CDR3 as printed); P9W derived by comparing it with the table's wild-type CDR3 ASSPTGGSPSPLH
enrichment [1]: 1.05 | enrichment [2]: 0

[…] (CDR3 as printed); P9Y derived by comparing it with the table's wild-type CDR3 ASSPTGGSPSPLH
enrichment [1]: 0.562 | enrichment [2]: 0

[…] (CDR3 as printed); P11A derived by comparing it with the table's wild-type CDR3 ASSPTGGSPSPLH
enrichment [1]: 0.423 | enrichment [2]: 0

[…] (CDR3 as printed); P11C derived by comparing it with the table's wild-type CDR3 ASSPTGGSPSPLH
enrichment [1]: 0.758 | enrichment [2]: 0

[…] (CDR3 as printed); P11D derived by comparing it with the table's wild-type CDR3 ASSPTGGSPSPLH
enrichment [1]: 0.46 | enrichment [2]: 0

[…] (CDR3 as printed); P11E derived by comparing it with the table's wild-type CDR3 ASSPTGGSPSPLH
enrichment [1]: 0.639 | enrichment [2]: 0

[…] (CDR3 as printed); P11F derived by comparing it with the table's wild-type CDR3 ASSPTGGSPSPLH
enrichment [1]: 0.728 | enrichment [2]: 0

[…] (CDR3 as printed); P11G derived by comparing it with the table's wild-type CDR3 ASSPTGGSPSPLH
enrichment [1]: 1.17 | enrichment [2]: 0

[…] (CDR3 as printed); P11H derived by comparing it with the table's wild-type CDR3 ASSPTGGSPSPLH
enrichment [1]: 1.37 | enrichment [2]: 0

[…] (CDR3 as printed); P11I derived by comparing it with the table's wild-type CDR3 ASSPTGGSPSPLH
enrichment [1]: 1.19 | enrichment [2]: 0

[…] (CDR3 as printed); P11K derived by comparing it with the table's wild-type CDR3 ASSPTGGSPSPLH
enrichment [1]: 0.634 | enrichment [2]: 0

[…] (CDR3 as printed); P11L derived by comparing it with the table's wild-type CDR3 ASSPTGGSPSPLH
enrichment [1]: 0.702 | enrichment [2]: 0

[…] (CDR3 as printed); P11M derived by comparing it with the table's wild-type CDR3 ASSPTGGSPSPLH
enrichment [1]: 0.318 | enrichment [2]: 0

[…] (CDR3 as printed); P11N derived by comparing it with the table's wild-type CDR3 ASSPTGGSPSPLH
enrichment [1]: 1.51 | enrichment [2]: 0

[…] (CDR3 as printed); P11Q derived by comparing it with the table's wild-type CDR3 ASSPTGGSPSPLH
enrichment [1]: 0.777 | enrichment [2]: 0

[…] (CDR3 as printed); P11R derived by comparing it with the table's wild-type CDR3 ASSPTGGSPSPLH
enrichment [1]: 0.579 | enrichment [2]: 0

[…] (CDR3 as printed); P11S derived by comparing it with the table's wild-type CDR3 ASSPTGGSPSPLH
enrichment [1]: 1.52 | enrichment [2]: 0

[…] (CDR3 as printed); P11T derived by comparing it with the table's wild-type CDR3 ASSPTGGSPSPLH
enrichment [1]: 1.19 | enrichment [2]: 0

[…] (CDR3 as printed); P11V derived by comparing it with the table's wild-type CDR3 ASSPTGGSPSPLH
enrichment [1]: 1.05 | enrichment [2]: 0

[…] (CDR3 as printed); P11W derived by comparing it with the table's wild-type CDR3 ASSPTGGSPSPLH
enrichment [1]: 0.701 | enrichment [2]: 0

[…] (CDR3 as printed); P11Y derived by comparing it with the table's wild-type CDR3 ASSPTGGSPSPLH
enrichment [1]: 0.787 | enrichment [2]: 0

[…] (CDR3 as printed); S2A derived by comparing it with the table's wild-type CDR3 ASSPTGGSPSPLH
enrichment [1]: 0.536 | enrichment [2]: 0

[…] (CDR3 as printed); S2C derived by comparing it with the table's wild-type CDR3 ASSPTGGSPSPLH
enrichment [1]: 0.867 | enrichment [2]: 0

[…] (CDR3 as printed); S2E derived by comparing it with the table's wild-type CDR3 ASSPTGGSPSPLH
enrichment [1]: 0.993 | enrichment [2]: 0

[…] (CDR3 as printed); S2F derived by comparing it with the table's wild-type CDR3 ASSPTGGSPSPLH
enrichment [1]: 0.437 | enrichment [2]: 0

[…] (CDR3 as printed); S2G derived by comparing it with the table's wild-type CDR3 ASSPTGGSPSPLH
enrichment [1]: 0.981 | enrichment [2]: 0

[…] (CDR3 as printed); S2H derived by comparing it with the table's wild-type CDR3 ASSPTGGSPSPLH
enrichment [1]: 0.777 | enrichment [2]: 0

[…] (CDR3 as printed); S2I derived by comparing it with the table's wild-type CDR3 ASSPTGGSPSPLH
enrichment [1]: 0.694 | enrichment [2]: 0

[…] (CDR3 as printed); S2K derived by comparing it with the table's wild-type CDR3 ASSPTGGSPSPLH
enrichment [1]: 0.571 | enrichment [2]: 0

[…] (CDR3 as printed); S2M derived by comparing it with the table's wild-type CDR3 ASSPTGGSPSPLH
enrichment [1]: 0.757 | enrichment [2]: 0

[…] (CDR3 as printed); S2N derived by comparing it with the table's wild-type CDR3 ASSPTGGSPSPLH
enrichment [1]: 0.879 | enrichment [2]: 0

[…] (CDR3 as printed); S2P derived by comparing it with the table's wild-type CDR3 ASSPTGGSPSPLH
enrichment [1]: 0.795 | enrichment [2]: 0

[…] (CDR3 as printed); S2Q derived by comparing it with the table's wild-type CDR3 ASSPTGGSPSPLH
enrichment [1]: 0.653 | enrichment [2]: 0

[…] (CDR3 as printed); S2R derived by comparing it with the table's wild-type CDR3 ASSPTGGSPSPLH
enrichment [1]: 0.703 | enrichment [2]: 0

[…] (CDR3 as printed); S2T derived by comparing it with the table's wild-type CDR3 ASSPTGGSPSPLH
enrichment [1]: 0.755 | enrichment [2]: 0

[…] (CDR3 as printed); S2V derived by comparing it with the table's wild-type CDR3 ASSPTGGSPSPLH
enrichment [1]: 0.992 | enrichment [2]: 0

[…] (CDR3 as printed); S2Y derived by comparing it with the table's wild-type CDR3 ASSPTGGSPSPLH
enrichment [1]: 0.769 | enrichment [2]: 0

[…] (CDR3 as printed); S3A derived by comparing it with the table's wild-type CDR3 ASSPTGGSPSPLH
enrichment [1]: 0.616 | enrichment [2]: 0

[…] (CDR3 as printed); S3C derived by comparing it with the table's wild-type CDR3 ASSPTGGSPSPLH
enrichment [1]: 0.656 | enrichment [2]: 0

[…] (CDR3 as printed); S3D derived by comparing it with the table's wild-type CDR3 ASSPTGGSPSPLH
enrichment [1]: 0.675 | enrichment [2]: 0

[…] (CDR3 as printed); S3E derived by comparing it with the table's wild-type CDR3 ASSPTGGSPSPLH
enrichment [1]: 0.814 | enrichment [2]: 0

[…] (CDR3 as printed); S3F derived by comparing it with the table's wild-type CDR3 ASSPTGGSPSPLH
enrichment [1]: 0.989 | enrichment [2]: 0

[…] (CDR3 as printed); S3G derived by comparing it with the table's wild-type CDR3 ASSPTGGSPSPLH
enrichment [1]: 0.543 | enrichment [2]: 0

[…] (CDR3 as printed); S3H derived by comparing it with the table's wild-type CDR3 ASSPTGGSPSPLH
enrichment [1]: 0.931 | enrichment [2]: 0

[…] (CDR3 as printed); S3I derived by comparing it with the table's wild-type CDR3 ASSPTGGSPSPLH
enrichment [1]: 1.21 | enrichment [2]: 0

[…] (CDR3 as printed); S3K derived by comparing it with the table's wild-type CDR3 ASSPTGGSPSPLH
enrichment [1]: 1.11 | enrichment [2]: 0

[…] (CDR3 as printed); S3L derived by comparing it with the table's wild-type CDR3 ASSPTGGSPSPLH
enrichment [1]: 0.942 | enrichment [2]: 0
